Source: a protein production outcome set (Wang et al. 2014)

Assay: label from the status in PepcDB records

**Q.** Which protein production does the source give for “GERPEPVFDAFADRLAEVAAVPYAMVNFIDENRQFFAGLHAPDGTGSGGRPAADGAEPPDVRRYMARDYGFCPHVVVRRKALVLEDVCDYPRFAGNPVVDEIGIRSYLGAPLIDRTGIALGTICVVDIEPRPWGRAGLETIKALAAELVEQIGRRESGGI” here?
**A.** failed

**Q.** For “GERRIPESRILRREVVEATSAVAAALQIPARAPVIEMTRVRLIDGAPMLAEEIWLPYDRFAAFSRLELDSIGDLLYPVYEAHCNQIVASATETLTVEAIGPAHARLLRIEPGTPAVVIERLAYGYDRRPLEWRRSRGPASEFIYQAEIR”, which protein production is on record?
**A.** failed

**Q.** For “GERRKDRPYVEEPRHVKVQKGSEPLGISIVSGEKGGIYVSKVTVGSIAHQAGLEYGDQLLEFNGINLRSATEQQARLIIGQQCDTITILAQYNPHVHQLSSHSR”, which protein production is on record?
**A.** not failed

**Q.** Which protein production does the source give for “GGRRWNWVQSWPVWKYFKEYFPICLVKTQDLDPGHNYIFGFHPHGIFVPGAFGNFCTKYSDFKKLFPGFTSYLHVAKIWFCFPLFREYLMSNGPVSVSKESLSHVLSKDGGGNVSIIVLGGAKEALEAHPGTFTLCIRQRKGFVKMALTHGASLVPVFSFGENDLYKQINNPKGSWLRTIQDAMYDSMGVALPLIYARGIFQHYFGIMPYRKLIYTVVGRPIPVQQILNPTSEQIEELHQTYLEELKKLFNEHKGKYGIPEHETLVFK” here?
**A.** failed

**Q.** Which protein production does the source give for “GGTSNEVAQFLSKENQVIVRMRGLPFTATAEEVVAFFGQHCPITGGKEGILFVTYPDGRPTGDAFVLFACEEYAQNALRKHKDLLGKRYIELFRSTAAEVQQVLNRFSSA” here?
**A.** not failed

**Q.** For “GHFPRACVSSKNLMEKECCPPWSGDRSPCGQLSGRGSCQNILLSNAPLGPQFPFTGVDDRESWPSVFYNRTCQCSGNFMGFNCGNCKFGFWGPNCTERRLLVRRNIFDLSAPEKDKFFAYLTLAKHTISSDYVIPIGTYGQMKNGSTPMFNDINIYDLFVWMHYYVSMDALLGGSEIWRDIDFAHEAPAFLPWHRLFLLRWEQEIQKLTGDENFTIPYWDWRDAEKCDICTDEYMGGQHPTNPNLLSPASFFSSWQIVCSRLEEYNSHQSLCNGTPEGPLRRNPGNHDKSRTPRLPSSADVEFCLSLTQYESGSMDKAANFSFRNTLEGFASPLTGIADASQSSMHNALHIYMNGTMSQVQGSANDPIFLLHHAFVDSIFEQWLRRHRPLQEVYPEANAPIGHNRESYMVPFIPLYRNGDFFISSKDLGYDYSYLQDSDPDSFQDYIKSYLEQASRIWSWLLGAAMVGAVLTALLAGLVSLLCRHKRKQLPEEKQPLLMEKEDYHSLYQSHL”, which protein production is on record?
**A.** failed

**Q.** For “GHMHTPFIVALDFPSKQEVERFLRPFAGTPLFVKVGMELYYQEGPAIVAFLKEQGHAVFLDLKLHDIPNTVKQAMKGLARVGADLVNVHAAGGRRMMEAAIEGLDAGTPSGRMRPRCIAVTQLTSTDERMLHEELWISRPLVETVAHYAALAKESGLDGVVCSANEAAFIKERCGASFLAVTPGIRFADDAAHDQVRVVTPRKARALGSDYIVIGRSLTRAADPLRTYARLQHEWNGGERESTTPT”, which protein production is on record?
**A.** not failed

**Q.** Which protein production does the source give for “GHMYETIRYEVKGQVAWLTLNRPDQLNAFTEQMNAEVTKALKQAGADPNVRCVVITGAGRAFCAGEDLSGVTEEMDHGDVLRSRYAPMMKALHHLEKPVVAAVNGAAAGAGMSLALACDFRLLSEKASFAPAFIHVGLVPDAGHLYYLPRLVGRAKALELAVLGEKVTAEEAAALGLATKVIPLSDWEEEVKQFAERLSAMPTKAIGLIKRLLRESEETTFDRYLEREAECQRIAGLTSDHREGVKAFFEKRKPLFQGN” here?
**A.** not failed

**Q.** Which protein production does the source give for “GKFGFNDAVGHPKTLKGAAYGRFANSFNLANNKISMDPDGNWMNKIYNEAELAEMDGLNYNWLDEAWSGAFTMNHSVNVSGGSEKATYFAGASYYTQGANLGKQDYNRWNFRAGVDIKLTSDLKFSATIAGNQQETTSSFTKGLSNLNGYGGTKPGESGDYLVLAHMPNYLPWEITLDDGNTYYTSPLLNSYSSAGNATSGNKMSTWNYFAMENNDGSYSTNDNFSYDANFSVTYAVPFIKGLSFKGSYALKRSASDSEQAFMPFTLAYLKASDALTPGNRFYSDHPSVSDYQLKEFTGSTRVVYSDQMAKNEQLNFYVNYEGKFGKHSIAAMAAVEKMQAYMHSKRMLFNNPDPDGYLGTSPSAGAMDTGNSITYKYKQGSLSYLGRVSYNYADKYLFQFLFRSDASTKFAPANYWGFFPGVSVGWVASEEEFMKKLLPSWFEYMKVRFSWGRTGKDNIKAWGWKQLYSLDPSRGYGFGSNGGILQTGIKPGATPNPDAHWDNTDKFNLGFDLRFLNNRLSATVDVYYDINSDILNQNIGGIIGTPIFAGGALTEVNFGRIDAFGSEFSLNWRDKIDQVKYNIGVNFGFNGNRVREWPQSAPSYIQENSVREGASTIFPTYGYKVWRGTSSGDGILRNSDDIENYWNYLSANAEAAGTSPEYLGVKDASQLKPGMLAYQDLGGVLNEDGTQSGPDGRIAKTQDYAKLNKSGKTYGFTTKLGAEWKGISFNMMIATSWGGYRQIDVNKITTSSGDMLWTPDSFWEDMFDERNNTTGKYPNLGLDNRISGSVIAPSDFWSISTFRCYIRNLSIGYTLPKAWLSPLKIQSAKLSLTGNNLW” here?
**A.** failed

**Q.** Which protein production does the source give for “GKGKNIIVLHLESFQQFLIDYKLKEGDKEYEVTPFINSLYHSNATLAFPNFFHQVKAGKTSDAETMMENSLFGLNSGSFMVNYGGENTQFATPSILAQKGGYTSAVFHGNVGTFWNRNNAYKQWGYNYFFDSSYFSKQNSKNSFQYGLNDKYMFKDSIKYLEQMQQPFYTKFITVSNHYPYTSLKGESSEEGFPLAKTDDETINGYFATANYLDAALKSFFDYLKATGLYDNSIFVLYGDHYGISNSRNSSLAPLLGKDSETWSEYDNAMLQRVPYMIHIPGYTNGSIKETFGGEIDALPTLLHILGIDTSQFVQLGQDLLSPQNSQIVAQRTSGTYMTPEYTNYSGRLYNTQTGLEIT” here?
**A.** failed

**Q.** With “GKLFEPYEHMVIDIPSEYQGNVTQLMAARKGQMLSMDNISDEWVRMEYKVPARGLISFRTMFMTETRGTGIANSYSEGLDEWAGEIKGRATGSLVADRSGQITAYALQQLADRGNFFVEPGTE” as the sequence, how does the protein production read?
**A.** failed

**Q.** Which protein production does the source give for “GKVSIPSIVYDIVRKNGGNKILLVGNGMLASEIAPYFSYPQYKVTVAGRNIDHVRAFAEKYEYEYVLINDIDSLIKNNDVIITATSSKTPIVEERSLMPGKLFIDLGNPPNIERGNNVITLDEIYEISKKNEMLREEKINQ” here?
**A.** not failed

**Q.** With “GLGGFTRTRNKGKSNVIDMIQKYIESKGMPIENWDITVGYCTNLEEAEKYRDDVEAQLGVKLLERREDFKTRISIISGCHTGPYALGIACIPKYTTIRL” as the sequence, how does the protein production read?
**A.** not failed

**Q.** With “GLINTHAHVGMSASKGLFDDVDLDSFLKKTFEYDSDRTSTGIFNSAKLGMYEMIGNGITAFVDLYYSEDIIAKAAEEIGIRAFLSWVTLDKELTTQIGDPVENAENFIRNHVGNKYVVPSVGVQGIYVANDDTFRRAMDLAEKYGTILHMHLSETRKEVYDAVKKLGERPIEHLHNIGILNKRVLAAHCVWATYHEVRLLSKDGVNVSWNSISNFKLGTGGIPPIPEMMRENVNVTIGTDSNGSNNSLDMFQAMKFSAISVKNYRWDASLMKAQEILDMATRNAARALQLNAG” as the sequence, how does the protein production read?
**A.** failed

**Q.** With “GMEGLVMNTRRALFADWRVREAMLLAFDFDLINRTLTGGAEPRIASYFSNSALGMEAGAPATGRERALLEPFAADLLPGTLDGYALPATHGASNRGNLRKAARLLSEAGWRIEDGMLEGPGGTPFAFEILLPQGADAMIAASIIYRQALTRLGISARITTVDPAQFKQRVDNQDFDMTSFLRSLTLSPGNEQLLYWSAEDKDLPGSRNLMGMESPAAEAVIRHMLATDDAEEFQASVRALDRVLTAGRYVIPMWYSR” as the sequence, how does the protein production read?
**A.** failed

**Q.** With “GMTTRVLALDALVPIVAADNPVPRVSTPDLARALSGEISNWKELGGPDMPLVLHALARDISLEAALEARLGRPIAAEITHPDLASLAAAVARDPYALAITGQTARGAARVLPLTDSCGFPLVPSPLAVKSED” as the sequence, how does the protein production read?
**A.** failed

**Q.** With “GNPKLKDLYIRPNIVTKRMTGSLEAHSNGFRYISVRGDKVDILYNNIKSAFFQPCDGEMIILLHFHLKYAIMFGKKKHVDVQFYTEVGEITTDLG” as the sequence, how does the protein production read?
**A.** failed

**Q.** For “GQYALTNGDPLNGHCYLSGYISLLLRAEPYPTSRYGSQCMQPNNIMGIENICELAARLLFSAVEWARNIPFFPDLQITDQVSLLRLTWSELFVLNAAQCSMPLHVAPLLAAAGLHASPMSADRVVAFMDHIRIFQEQVEKLKALHVDSAEYSCLKAIVLFTSDACGLSDAAHIESLQEKSQCALEEYVRSQYPNQPSRFGKLLLRLPSLRTVSSSVIEQLFFVRLVGKTPIETLIRDMLLSGSSFNWPYMSIQCS”, which protein production is on record?
**A.** failed

**Q.** With “GRAPRNGEKVLVEFVSANPTGPLHVGHARQAALGDAICRLYDASGWDVTREFYYNDAGNQIDNLAISVQARGRGIAPDAPDYPADGYKGDYIVEIARDFAARKSVQASDGQPVTATGDLDSLDDIRAFAVAYLRREQDLDLQAFGLAFDNYFLESSLYASGRVQETVDTLVAKGHTYEEGGALWLRTTELGTGDDKDRVMRKSEGGYTYFVPDVAYHKVKWERGFHHAVNIQGSDHHGTVARVRAGLQGLAGIPKDFPAYVLHKMVKVMRGGEEVKISKRAGSYVTMRDLIDWVGRDAVRYFLIQRRADTEFVFDIDLALSKSDENPVYYIQYAHARICTMIGNSGA” as the sequence, how does the protein production read?
**A.** failed

**Q.** Which protein production does the source give for “GRLRTDAVRAFCTTIVEATAPYACAFKPNFAFFEALGPAGLTVLDQVVTTIPDDCLVLGDAKRGDIGHSARHYAASIYEELGLDACTVSPYLGRDSVMPFLEHEGTCTFVLARTSNDGAADLQEACTCDGTPLYRHVARRVQAWNADAPGGAGLVVGATAPAALQDLRSLCPSLPFLVPGVGAQGGDAAAVMDAAATDEGPVLVNSSRSILYASEGPNYANAAADAARALRDALNG” here?
**A.** failed

**Q.** Which protein production does the source give for “GSGATSAAGKPQETFLDFNESPYGPSAKARAAMQRAAALCGRYDYDAQDALVGLFAKQNGIPAECVHAYCGSRQPLQYAVAAFTGKERGLVIADPSYDSVVGAAQAQGAKVAAVPLDAEAAHDIERMLAAAQRDAGLIYICNPNNPTGTLTPHERIVRAIERKPERSVVLVDEAYIHFSDAPSVVGLAVQRQDVLVLRTFSKLYGMAGARLGLAIGHPQLLARLERFGGHNVVPSPTAHAGLESLRDDDLVPRRKQQNAEVRERTIAWLRQQGFRCTASQSNCFMVDMRRPAELVIAELEKQRVHVGRPWASWPNWVRVTVGSEEEMQAFR” here?
**A.** failed

**Q.** With “GSPDPEIFRQRFRQFGYQDSPGPREAVSQLRELCRLWLRPETHTKEQILELVVLEQFVAILPKELQTWVRDHHPENGEEAVTVLEDLESELDD” as the sequence, how does the protein production read?
**A.** not failed

**Q.** With “GSSGSSGMDEDVLTTLKILIIGESGVGKSSLLLRFTDDTFDPELAATIGVDFKVKTISVDGNKAKLAIWDTAGQERFRTLTPSYYRGAQGVILVYDVTRRDTFVKLDNWLNELETYCTRNDIVNMLVGNKIDKENREVDRNEGLKFARKHSMLFIEASAKTCDGVQCAFEELVEKIIQTPGLWESENQNSGPSSG” as the sequence, how does the protein production read?
**A.** not failed

**Q.** Which protein production does the source give for “GSSGSSGNWIDVRYDLEKIESLIQSIHIDTTLYTDSDFHPSCKVTAMNCFLLELQVILHEYSNMTLNETVRNVLYLANSTLSSNKNVAESGCKECEELEEKTFTEFLQSFIRIVQMFINTS” here?
**A.** not failed

**Q.** With “GVDRWPEYYPETGRDIWIDSVMRQEYLWYRDMPSPAAPDYFQKPEAFLKKAVASMDNGFSKIDSLLDEPIPSYGFDYTLYKVLDNDTAYNALISYVVPGSPAEEAGLQRGHWIMMMNGDYITKKVESELLQGSTRQLQIGVYKEVVGEDGEVTGGVVPIGETTMPASRSLVDKPVHRFEIIPWNGKKVGYLMYNEFKAGPTTDSQAYNDDLRRAFRDFQTGGVNEFVLDLRYNTGGSLDCAQLLCTMLAPADKMNQLLALLRYSDKRVEANQDLTFNPELIQSGANLNLSTVYVLTTNATRGAAEMVINCLNPYMKVVLIGTKTAGEYVATKPFVHPTDRFILNLVVCNVYNAEEKSDYATGFKPTYEYNEDSYLSTYLPFGNTNETLLNAALKIMSGITDK” as the sequence, how does the protein production read?
**A.** not failed
